{"source": "paper PMC3012730", "about": "“The Actinobacillus pleuropneumoniae HMW1C-Like Glycosyltransferase Mediates N-Linked Glycosylation of the Haemophilus influenzae HMW1 Adhesin” (PLoS ONE, 2010)", "key": {"[1]": {"test_system": "O=c1ccn([C@@H]2O[C@H](COP(=O)(O)OP(=O)(O)O[C@H]3O[C@H](CO)[C@H](O)[C@H](O)[C@H]3O)[C@@H](O)[C@H]2O)c(=O)[nH]1", "assay": "purified protein", "settings": "apparent Km, fixed acceptor protein His-HMW1ct (standard 3.2 µM), 50 mM HEPES pH 8.0, 50 mM KCl, 5 mM MgCl2, room temperature"}, "[2]": {"test_system": "O=c1ccn([C@@H]2O[C@H](CO[P@@](=O)(O)O[P@@](=O)(O)O[C@H]3O[C@H](CO)[C@@H](O)[C@H](O)[C@H]3O)[C@@H](O)[C@H]2O)c(=O)[nH]1", "assay": "purified protein", "settings": "apparent Km, fixed acceptor protein His-HMW1ct (standard 3.2 µM), 50 mM HEPES pH 8.0, 50 mM KCl, 5 mM MgCl2, room temperature"}}, "data": [{"substance": "ApHMW1C (Actinobacillus pleuropneumoniae serovar 5b str. L20)", "values": [{"measurement": "Km", "setting": "[1]", "result": "147.5 ± 24.8", "unit": "µM"}, {"measurement": "Vmax", "setting": "[1]", "result": 0.0643, "unit": "µmol/min/mg"}, {"measurement": "kcat", "setting": "[1]", "result": "0.077 ± 0.005", "unit": "s⁻¹"}, {"measurement": "kcat/Km", "setting": "[1]", "result": "520 ± 210", "unit": "M⁻¹ s⁻¹"}, {"measurement": "Km", "setting": "[2]", "result": "38.9 ± 5.8", "unit": "µM"}, {"measurement": "Vmax", "setting": "[2]", "result": 0.109, "unit": "µmol/min/mg"}, {"measurement": "kcat", "setting": "[2]", "result": "0.13 ± 0.005", "unit": "s⁻¹"}, {"measurement": "kcat/Km", "setting": "[2]", "result": "3300 ± 800", "unit": "M⁻¹ s⁻¹"}]}]}
